Experimental data published in FireProtDB (doi:10.1021/bi00197a024).
“And” between values parts separate entries of the source, which are not always exact repeats. Equal entries are not always repeated.

Conditions: Saccharomyces cerevisiae (strain ATCC 204508 / S288c), Thermal, DSC, reversible: yes, whole UniProt chain shown

B1: Cytochrome c mitochondrial import factor CYC2 wild type, P38909 (protein)
chain: MLWKNYVLSSSRITRRLHKSPRKSSFSKNFFITGCLLTVGAVSSYLTYRYTSERENKHELSPSYFVKYKISHKRDIDSSHFLLEVTPLFKQKVNIWSLMTAENLWSVEIKQPEVMVVRNYTPLPLKFNPASKEIEILKDGDNADGKLSFYIKKYENGEVARWLHHLPKGHIIEIRGPFIDYEFPHLPNELKRSRDCLYMDNRNERGNNVRENSQFIYQPYDIMMFTAGTGIVTALQLLLTESPFRGTIKLFHTDKNIKQLGPLYPILLRLQASNRVQLKIFETDRQTKQDVLKSIQKSITKPYPYKGLLPFSNVNNKNIMPVLALVCGPESYISSISGRKYDLNQGPVGGLLSKEGWNSDNVYKLS
pH 3.5, Sodium acetate 0.1 M
  Tm: 39 °C
  unfolding enthalpy (calorimetric): 53.7 kcal/mol
  unfolding enthalpy (van 't Hoff): 67.7 kcal/mol
pH 4, Sodium acetate 0.1 M
  Tm: 43.7 °C
  unfolding enthalpy (calorimetric): 62.7 kcal/mol
  unfolding enthalpy (van 't Hoff): 75.9 kcal/mol
pH 5, Sodium phosphate 0.1 M
  Tm: 54.9 °C and 53.1 °C
  unfolding enthalpy (calorimetric): 73.4 kcal/mol and 71.2 kcal/mol
  unfolding enthalpy (van 't Hoff): 93.2 kcal/mol and 92.9 kcal/mol
pH 6, Sodium phosphate 0.1 M
  Tm: 54.5 °C
  unfolding enthalpy (calorimetric): 67.4 kcal/mol
  unfolding enthalpy (van 't Hoff): 91.7 kcal/mol
